This note sets out measurements from patent US20180282719A1 (published 2018).

The target in assay [1] is T1, recombinant soluble human IL-6 receptor (SR344) (human, UniProt P08887 20-344, biotinylated (sites not given) where immobilized via streptavidin or used in phage ELISA).
T1 construct: also called soluble IL-6 receptor; membrane-type IL-6 receptor (when biotinylated and immobilized on the chip)
T1 sequence (looked up): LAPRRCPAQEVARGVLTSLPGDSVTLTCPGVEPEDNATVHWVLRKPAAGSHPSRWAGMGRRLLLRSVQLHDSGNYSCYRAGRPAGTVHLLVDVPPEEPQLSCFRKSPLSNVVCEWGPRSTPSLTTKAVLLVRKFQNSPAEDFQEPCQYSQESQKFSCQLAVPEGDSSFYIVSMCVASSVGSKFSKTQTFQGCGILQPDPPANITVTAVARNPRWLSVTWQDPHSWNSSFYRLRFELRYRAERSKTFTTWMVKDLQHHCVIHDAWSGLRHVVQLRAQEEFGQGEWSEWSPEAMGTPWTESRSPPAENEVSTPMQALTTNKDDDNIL
Put plainly: SPR Biacore T100, biotinylated SR344 on streptavidin chip (model of membrane-type IL-6 receptor), antibody as analyte, bound at pH 7.4, dissociation at pH 7.4, 37 C. How it is done:
(§1) Binding to the membrane-type IL-6 receptor was evaluated by evaluating binding to the IL-6 receptor immobilized on a sensor chip. SR344 was biotinylated in accordance with a method known among persons with ordinary skill in the art, and the biotinylated SR344 was immobilized on the sensor chip via streptavidin using the affinity between streptavidin and biotin. All the measurements were carried out at 37° C. The mobile phase buffer was 10 mM MES (pH 5.8), 150 mM NaCl and 0.05% TWEEN® 20 (polyoxyethelene sorbitan monolaurate).
(§2) The pH-dependently-binding clones were injected under the condition of pH 7.4 to allow them to bind to SR344, and then, the pH-dependent dissociation of each clone at the pH of the mobile phase, pH 5.8, was observed. The results are shown in FIG. 21 (results for Fv1-M71, Fv1-M73, Fv3-M71, and Fv3-M73 are shown in FIG. 21, while results for other clones are shown in FIGS. 17 and 19). Analyses were carried out in the same manner as in Example 10 and the pH dependencies of the dissociation rate constants of all of the eleven types of clones are shown in Table 12.
(Surface plasmon resonance follows binding to a sensor surface in real time, without labels.)

Assay [2] deals with T1, recombinant soluble human IL-6 receptor …. Put plainly: SPR Biacore T100, biotinylated SR344 on streptavidin chip (model of membrane-type IL-6 receptor), antibody 0.25 ug/mL as analyte, bound at pH 7.4, dissociation at pH 5.8, 37 C. How it is done: as §1, §2
For assay [3] the target is unchanged. As to the kind of experiment: SPR Biacore T100, biotinylated SR344 on streptavidin chip (model of membrane-type IL-6 receptor), antibody as analyte, bound at pH 7.4, dissociation at pH 5.8, 37 C. How it is done: as §1, §2
For assay [4] the target is unchanged. As to the kind of experiment: SPR Biacore T100, antibody captured by anti-IgG gamma chain F(ab)2, SR344 analyte, pH 7.4, 37 C. As for the experimental part:
(§3) Kinetic analyses of antigen-antibody reactions at pH 7.4 were carried out on the four types of antibodies, i.e., the humanized PM1 antibody (wild type: WT), and […], H3pI/L73-IgG1, Fv2-IgG1, and Fv4-IgG1 constructed in Examples 2 and 10, by using a Biacore T100™ surface plasmon resonance system (GE Healthcare) (buffer: 10 mM MES (pH 7.4), 150 mM NaCl, 0.05% TWEEN® 20 (polyoxyethelene sorbitan monolaurate)). Each antibody was bound on a sensor chip on which an anti-IgG γ chain specific F(ab)₂ (Pierce) was immobilized by amine coupling, and then, SR344 adjusted to a concentration of 9.8 to 40 nM was injected thereto as an analyte. The association to and dissociation from SR344 were observed on a real-time basis for the pH-dependent-binding clones. All the measurements were carried out at 37° C. Association rate constants kₐ (1/Ms) and dissociation rate constants kd (1/s) were calculated using Biacore T100™ Evaluation Software (GE Healthcare), and dissociation constants KD (M) were calculated on the basis of those values (Table 7).

Assay [5] has the same target. Described as above. How it is done:
as §3
The association to and dissociation from SR344 were observed on a real-time basis using the same method as Example 10 for the eleven types of antibodies, humanized PM1 antibody (wild type: WT) and H3pI/L73-IgG1, Fv1-M71, Fv1-M73, Fv2-IgG1, Fv3-M71, Fv3-M73, Fv4-IgG1, Fv4-IgG2, Fv4-M58, and Fv4-M73, constructed as described above. The association rate constants kₐ (1/Ms) and dissociation rate constants kd. (1/s) were calculated by analysis in the same manner, and the dissociation constants KD (M) were calculated on the basis of those values (Table 11).
The source holds these as a separate data set.

Assay [6] shares this target. As to the kind of experiment: SPR Biacore T100, antibody on protein A/G chip, SR344 analyte, 37 C, ratio of pH 5.8 to pH 7.4. How it is done: Kinetic analyses of antigen-antibody reactions at pH 5.8 and pH 7.4 were carried out using a Biacore™ T100 surface plasmon resonance system (GE Healthcare) on the four antibodies: humanized PM1 antibody (WT) and H3pI/L73, CLH5/L73, and H170/L82 produced in Examples 2 and 4 (buffer: 10 mM MES (pH 7.4 or pH 5.8), 150 mM NaCl, and 0.05% TWEEN® 20 (polyoxyethelene sorbitan monolaurate)). Various antibodies were bound onto a sensor chip immobilized with recomb-protein A/G (Pierce) by amine coupling. SR344 adjusted to concentrations of 9.8 to 400 nM was injected to the chip as an analyte. […] All the measurements were carried out at 37° C. Association rate constants kₐ (1/Ms) and dissociation rate constants kd (1/s) were calculated using Biacore T100™ Evaluation Software (GE Healthcare), and dissociation constants KD (M) were calculated on the basis of those values (Table 5). Moreover, the ratio of the affinities at pH 5.8 and pH 7.4 were calculated for each clone to evaluate pH-dependent binding. All the measurements were carried out at 37° C.

Where two headings read alike, the source gives them in different places.

B1: Fv4-IgG1 (antibody)
heavy: not shown
light: DIQMTQSPSSLSASVGDSVTITCQASTDISSHLNWYQQKPGKAPELLIYYGSHLLSGVPSRFSGSGSGTDFTFTISSLEAEDAATYYCGQGNRLPYTFGQGTKVEIERTVAAPSVFIFPPSDEQLKSGTASVVCLLNNFYPREAKVQWKVDNALQSGNSQESVTEQDSKDSTYSLSSTLTLSKADYEKHKVYACEVTHQGLSSPVTKSFNRGEC
notes: VH3-IgG1 / VL3-CK
By koff is commonly meant the rate constant with which the complex falls apart. One may read the Kd as the concentration at which binding is half-saturated. As usually defined, the kon is the rate constant with which the complex forms. Take B1: the koff in assay [1] turned out to be 0.00047 s⁻¹; in assay [2], 0.0026 s⁻¹; in assay [3], 0.0026 s⁻¹; in assay [4], 0.001 s⁻¹; in assay [5] it was 0.001 s⁻¹. Also, the Kd in assay [4] and in assay [5] was 1.4 nM each time. Further, the kon in assay [4] and in assay [5] was 720000 M⁻¹ s⁻¹ each time.

B2: humanized PM1 antibody (wild type, WT) (antibody, human IgG1, kappa, V domains shown)
VH: QVQLQESGPGLVRPSQTLSLTCTVSGYSITSDHAWSWVRQPPGRGLEWIGYISYSGITTYNPSLKSRVTMLRDTSKNQFSLRLSSVTAADTAVYYCARSLARTTAMDYWGQGSLVTVSS
VL: DIQMTQSPSSLSASVGDRVTITCRASQDISSYLNWYQQKPGKAPKLLIYYTSRLHSGVPSRFSGSGSGTDFTFTISSLQPEDIATYYCQQGNTLPYTFGQGTKVEIKR
notes: IgG1; also called WT-IgG1; wild type humanized anti-IL-6 receptor antibody
Turning to B2, the koff in assay [1] came to 0.00025 s⁻¹; in assay [2] it was 0.00025 s⁻¹; in assay [3], 0.00025 s⁻¹; in assay [4] it was 0.0011 s⁻¹; in assay [5], 0.0011 s⁻¹. Moreover, the “KD (pH 5.8)/KD (pH 7.4)” value in assay [6] turned out to be 2.4. For the same molecule, the Kd in assay [4] and in assay [5] was 2.7 nM each time. In addition, the kon in assay [4] and in assay [5] was 400000 M⁻¹ s⁻¹ in each case.

B3: H3pI/L73 (antibody, IgG1, V domains shown)
VH: QVQLQESGPGLVKPSETLSLTCAVSGHSISHDHAHSWVRQPPGEGLEWIGYISYSGITNYNPSLKGRVTISRDTSKNQFSLKLSSVTAADTAAYYCARSLARTTAMDYWGEGTLVTVSS
VL: DIQMTQSPSSLSASVGDSVTITCQASQHISSHLNWYQQKPGKAPELLIYYGSHLHSGVPSRFSGSGSGTDFTFTISSLEAEDAATYYCGQGNRLPYTFGQGTKVEIE
notes: tested as IgG1; also called H3pI/L73-IgG1; H3pl/L73
B3: the koff is 0.00026 s⁻¹ in assay [1]; 0.00067 s⁻¹ in assay [2]; 0.00067 s⁻¹ in assay [3]; 0.00059 s⁻¹ in assay [4]; 0.00059 s⁻¹ in assay [5]. Besides, in assay [6], the “KD (pH 5.8)/KD (pH 7.4)” value is 41.3. The Kd in assay [4] and in assay [5] was 1.4 nM each time. Besides, the on-rate (kon) in assay [4] and in assay [5] was 410000 M⁻¹ s⁻¹ in each case.

B4: H170/L82 (antibody, IgG1, V domains shown)
VH: QVQLQESGPGLVKPSETLSLTCAVSGHSISHHHAHSWVRQPPGEGLEWIGYISYSGITHYNPHLKGRVTISRDTSKNQFSLKLSSVTAADTAAYYCARVLARITAMDHWGEGTLVTVSS
VL: DIQMTQSPSSLSASVGDSVTITCQASQDISSHLNWYQQKPGKAPELLIYYGSHLHSGVPSRFSGSGSGTDFTFTISSLEAEDAATYYCGQGNRLPYTFGQGTKVEIE
notes: expressed and purified as IgG (IgG1); also called H170/L82-IgG1
On to B4, for which the “KD (pH 5.8)/KD (pH 7.4)” value in assay [6] was 394.
